Assay results from paper PMC11891140.

How the values were obtained:
[1] = biological target: EGL-8 used as bait in GST pull-downs of UNC-16 domains (Fig. 5D, 7J) (UniProt G5EBH0); test: GST pull-down; conditions: GST::EGL-8 bait (x label in J' printed as GST::RAB-8); in vitro translated HA-tagged prey; three independent replicates; parent: est. 3.2; read off a plot
[2] = biological target: purified UNC-16-LZII domain fragment (260–849 aa) (C. elegans); test: native gel or EMSA; native-PAGE of purified UNC-16-LZII domain and its L360P variant (260–849 aa); dimer formation; three independent experiments
[3] = biological target: RAB-10 used in GST pull-downs, loaded with GTPγS or GDP (UniProt Q94148); test: GST pull-down; conditions: GST::RAB-10 loaded with GTPγS; in vitro translated HA-tagged prey; three independent replicates; parent: est. 6.1; read off a plot
[4] = biological target: T1, purified UNC-16-LZII domain fragment (260–849 aa), L360P variant; test: Native-PAGE; conditions: chain shown with the change; three independent experiments; P = 0.0034; parent: est. 0.86; read off a plot
T1 chain: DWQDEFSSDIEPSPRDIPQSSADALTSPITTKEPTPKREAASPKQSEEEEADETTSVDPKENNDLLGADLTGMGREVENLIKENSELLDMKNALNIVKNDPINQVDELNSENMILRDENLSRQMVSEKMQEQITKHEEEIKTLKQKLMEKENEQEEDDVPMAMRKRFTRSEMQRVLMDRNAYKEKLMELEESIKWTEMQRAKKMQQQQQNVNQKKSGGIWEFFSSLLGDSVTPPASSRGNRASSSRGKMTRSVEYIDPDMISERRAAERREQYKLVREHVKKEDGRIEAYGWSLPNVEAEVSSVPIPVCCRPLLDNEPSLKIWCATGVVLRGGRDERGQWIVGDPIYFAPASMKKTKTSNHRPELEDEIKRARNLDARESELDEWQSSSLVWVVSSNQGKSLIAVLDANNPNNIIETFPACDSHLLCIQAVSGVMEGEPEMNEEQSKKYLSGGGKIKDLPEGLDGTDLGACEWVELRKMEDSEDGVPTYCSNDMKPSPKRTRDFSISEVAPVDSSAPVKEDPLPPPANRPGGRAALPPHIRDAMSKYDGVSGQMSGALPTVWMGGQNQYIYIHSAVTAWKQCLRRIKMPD

UniProt G5EBH0, sequence (G5EBH0 whole entry, the tested form may be a part): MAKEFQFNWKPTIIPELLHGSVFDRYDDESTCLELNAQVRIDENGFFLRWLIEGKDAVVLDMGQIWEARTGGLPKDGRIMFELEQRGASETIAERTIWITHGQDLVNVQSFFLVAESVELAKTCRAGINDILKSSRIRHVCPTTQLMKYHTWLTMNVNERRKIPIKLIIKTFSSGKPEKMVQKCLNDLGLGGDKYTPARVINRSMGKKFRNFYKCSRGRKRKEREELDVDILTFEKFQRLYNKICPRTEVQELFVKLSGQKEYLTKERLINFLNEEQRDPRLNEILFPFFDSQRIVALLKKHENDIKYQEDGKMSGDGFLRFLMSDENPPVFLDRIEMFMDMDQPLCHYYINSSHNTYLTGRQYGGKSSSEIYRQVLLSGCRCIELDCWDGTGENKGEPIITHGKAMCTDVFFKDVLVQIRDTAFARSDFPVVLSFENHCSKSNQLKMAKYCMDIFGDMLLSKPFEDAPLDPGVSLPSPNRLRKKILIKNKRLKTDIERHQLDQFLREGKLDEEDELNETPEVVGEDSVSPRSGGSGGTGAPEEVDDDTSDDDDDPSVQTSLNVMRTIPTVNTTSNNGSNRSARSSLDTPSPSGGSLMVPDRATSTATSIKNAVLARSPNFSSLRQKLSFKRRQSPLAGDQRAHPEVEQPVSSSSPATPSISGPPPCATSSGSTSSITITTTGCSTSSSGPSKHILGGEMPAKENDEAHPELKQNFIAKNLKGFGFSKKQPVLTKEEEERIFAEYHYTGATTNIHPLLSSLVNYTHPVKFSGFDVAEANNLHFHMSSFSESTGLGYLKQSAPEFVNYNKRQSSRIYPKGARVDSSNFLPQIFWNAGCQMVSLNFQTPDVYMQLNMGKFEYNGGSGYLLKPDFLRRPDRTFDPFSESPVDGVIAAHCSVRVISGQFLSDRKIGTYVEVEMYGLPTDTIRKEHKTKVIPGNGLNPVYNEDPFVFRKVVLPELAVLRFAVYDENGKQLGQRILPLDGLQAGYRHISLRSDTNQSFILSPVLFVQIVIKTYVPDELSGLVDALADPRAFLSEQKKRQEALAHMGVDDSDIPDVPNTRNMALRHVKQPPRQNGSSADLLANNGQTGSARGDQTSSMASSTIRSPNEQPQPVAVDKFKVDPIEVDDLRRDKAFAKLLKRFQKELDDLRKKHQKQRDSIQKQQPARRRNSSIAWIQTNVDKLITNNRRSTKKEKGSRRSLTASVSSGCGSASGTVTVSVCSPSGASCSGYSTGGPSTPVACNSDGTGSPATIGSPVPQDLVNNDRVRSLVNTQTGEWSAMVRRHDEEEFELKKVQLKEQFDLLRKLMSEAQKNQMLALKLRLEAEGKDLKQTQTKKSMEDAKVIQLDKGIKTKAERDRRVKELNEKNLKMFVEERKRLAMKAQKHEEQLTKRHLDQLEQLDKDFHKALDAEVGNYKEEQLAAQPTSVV
UniProt Q94148, sequence (Q94148 whole entry, the tested form may be a part): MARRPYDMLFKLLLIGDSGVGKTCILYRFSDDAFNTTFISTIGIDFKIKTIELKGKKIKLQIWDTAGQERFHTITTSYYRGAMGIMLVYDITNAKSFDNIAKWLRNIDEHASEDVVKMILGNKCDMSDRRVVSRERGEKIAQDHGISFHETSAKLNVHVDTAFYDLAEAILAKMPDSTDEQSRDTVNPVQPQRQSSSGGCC

HA-tagged UNC-16 fragment containing the LZII domain (in vitro translated) L360P
response (binding/input) [1]: 0.65

purified UNC-16-LZII domain fragment (260–849 aa) (domain or fragment)
stoichiometry N [2]: 2

HA-tagged UNC-16 fragment containing the LZII domain (in vitro translated) L353A; N354A; I355A; V356A; K357A; N358A; D359A; L360A; I361A; N362A; Q363A; V364A; D365A; E366A; L367A
response (binding/input) [1]: 0.1
response (binding/input) [3]: 0.1

B1: purified UNC-16-LZII domain fragment (260–849 aa) L360P (protein)
chain: DWQDEFSSDIEPSPRDIPQSSADALTSPITTKEPTPKREAASPKQSEEEEADETTSVDPKENNDLLGADLTGMGREVENLIKENSELLDMKNALNIVKNDPINQVDELNSENMILRDENLSRQMVSEKMQEQITKHEEEIKTLKQKLMEKENEQEEDDVPMAMRKRFTRSEMQRVLMDRNAYKEKLMELEESIKWTEMQRAKKMQQQQQNVNQKKSGGIWEFFSSLLGDSVTPPASSRGNRASSSRGKMTRSVEYIDPDMISERRAAERREQYKLVREHVKKEDGRIEAYGWSLPNVEAEVSSVPIPVCCRPLLDNEPSLKIWCATGVVLRGGRDERGQWIVGDPIYFAPASMKKTKTSNHRPELEDEIKRARNLDARESELDEWQSSSLVWVVSSNQGKSLIAVLDANNPNNIIETFPACDSHLLCIQAVSGVMEGEPEMNEEQSKKYLSGGGKIKDLPEGLDGTDLGACEWVELRKMEDSEDGVPTYCSNDMKPSPKRTRDFSISEVAPVDSSAPVKEDPLPPPANRPGGRAALPPHIRDAMSKYDGVSGQMSGALPTVWMGGQNQYIYIHSAVTAWKQCLRRIKMPD
other: ratio of dimer to monomer [4]: 0.58
